Experimental data: patent US20250109203A1

Target: human γδ TCR (Vγ9Vδ2) on human Vδ2+ γδ T cells (human) (UniProt A0JD36)
Assay: flow cytometry on expanded human Vδ2+ γδ T cells, nonlinear fit

Binder	Kd [nM]
hu1D7v3 VHH-hIgG1 Fc-NNT (monomeric) (VHH) VHH: EVQLLESGGGEVQPGGSLRLSCVASGGKISQYRMGWYRQAPGKGLEWVAHISNTGDAAEYVDSVKGRFTISRDSTKNAVYLQMSSLRAEDTAVYKCNSVEDILAWGQGTLVTVKP	51.1
1D7v125 VHH-hIgG1 Fc-NNT (monomeric) (VHH) VHH: EVQLLESGGGEVQPGGSLRLSCVASRGKISQYRMGWYRQAPGKERELVAHISNTGDAAEYVEGVKDRFTISRDSTKNALYLQMSSLRAEDTAVYKCNSVEDILAWGQGTLVTVRP	59
hu1D7v86 VHH-hIgG1 Fc-NNT (monomeric) (VHH) VHH: EVQLLESGGGEVQPGGSLRLSCVASRGKISQYRMGWYRQAPGKERELVAHISNTGDAAEYVGGVKDRFTISRDSTKNALYLQMSSLRAEDTAVYKCNSVEDILAWGQGTLVTVRP	126
hu1D7v94 VHH-hIgG1 Fc-NNT (monomeric) (VHH) VHH: EVQLLESGGGEVQPGGSLRLSCVASRGKISQYRMGWYRQAPGKERELVAHISNTGDAAEYVDSVKDRFTISRDSTKNALYLQMSSLRAEDTAVYKCSNVEDILAWGQGTLVTVRP	752
1D7v124 VHH-hIgG1 Fc-NNT (monomeric) (VHH) VHH: EVQLLESGGGEVQPGGSLRLSCVASRGKISQYRMGWYRQAPGKERELVAHISNTGDAAEYVDGVKDRFTISRDSTKNALYLQMSSLRAEDTAVYKCNSVEDILAWGQGTLVTVRP	72.2
hu1D7v5 VHH-hIgG1 Fc-NNT (monomeric) (VHH) VHH: EVQLLESGGGEVQPGGSLRLSCVASRGTISQYRMGWYRQAPGKGLEWVAHISNTGDAAEYVDSVKGRFTISRDSTKNAVYLQMSSLRAEDTAVYKCNSVEDILAWGQGTLVTVKP	108
1D7v113 VHH-hIgG1 Fc-NNT (monomeric) (VHH) VHH: EVQLLESGGGEVQPGGSLRLSCVASRGKISQYRMGWYRQAPGKERELVAHISNTGDAAEYVDLVKDRFTISRDSTKNALYLQMSSLRAEDTAVYKCNSVEDILAWGQGTLVTVRP	192
1D7v112 VHH-hIgG1 Fc-NNT (monomeric) (VHH) VHH: EVQLLESGGGEVQPGGSLRLSCVASRGKISQYRMGWYRQAPGKERELVAHISNTGDAAEYVDVVKDRFTISRDSTKNALYLQMSSLRAEDTAVYKCNSVEDILAWGQGTLVTVRP	226
hu1D7v10 VHH-hIgG1 Fc-NNT (monomeric) (VHH) VHH: EVQLLESGGGEVQPGGSLRLSCVASRGKISQYRMGWYRQAPGKGLEWVSHISNTGDAAEYVDSVKGRFTISRDSTKNAVYLQMSSLRAEDTAVYKCNSVEDILAWGQGTLVTVKP	60.9
1D7v139 VHH-hIgG1 Fc-NNT (monomeric) (VHH) VHH: EVQLLESGGGEVQPGGSLRLSCVASRGKISQYRMGWYRQAPGKERELVAHISNTGDAAEYVLSVKDRFTISRDSTKNALYLQMSSLRAEDTAVYKCNSVEDILAWGQGTLVTVRP	341
hu1D7v85 VHH-hIgG1 Fc-NNT (monomeric) (VHH) VHH: EVQLLESGGGEVQPGGSLRLSCVASRGKISQYRMGWYRQAPGKERELVAHISNTGDAAEYVSGVKDRFTISRDSTKNALYLQMSSLRAEDTAVYKCNSVEDILAWGQGTLVTVRP	168

More lines, now with the values ahead:

Kd [nM]	Binder
270	hu1D7v101 VHH-hIgG1 Fc-NNT (monomeric) (VHH) VHH: EVQLLESGGGEVQPGGSLRLSCVASRGKISQYRMGWYRQAPGKERELVAHISNTGDAAEYVDSVKDRFTISRDSTKNALYLQMSSLRAEDTAVYKCAAVEDILAWGQGTLVTVRP
114	hu1D7v98 VHH-hIgG1 Fc-NNT (monomeric) (VHH) VHH: EVQLLESGGGEVQPGGSLRLSCVASRGKISQYRMGWYRQAPGKERELVAHISNTGDAAEYVLSVKDRFTISRDSTKNALYLQMSSLRAEDTAVYKCNSVEDILAWGQGTLVTVRP
18	hu1D7v102 VHH-hIgG1 Fc-NNT (monomeric) (VHH) VHH: EVQLLESGGGEVQPGGSLRLSCVASRGKISQYRMGWYRQAPGKELEWVAHISNTGDAAEYVDSVKDRFTISRDSTKNALYLQMSSLRAEDTAVYKCNTVEDILAWGQGTLVTVRP
116	hu1D7v99 VHH-hIgG1 Fc-NNT (monomeric) (VHH) VHH: EVQLLESGGGEVQPGGSLRLSCVASRGKISQYRMGWYRQAPGKERELVAHISNTGDAAEYVSSVKDRFTISRDSTKNALYLQMSSLRAEDTAVYKCNSVEDILAWGQGTLVTVRP
61.9	hu1D7v100 VHH-hIgG1 Fc-NNT (monomeric) (VHH) VHH: EVQLLESGGGEVQPGGSLRLSCVASRGKISQYRMGWYRQAPGKERELVAHISNTGDAAEYVDSVKDRFTISRDSTKNALYLQMSSLRAEDTAVYYCNSVEDILAWGQGTLVTVRP
191	hu1D7v96 VHH-hIgG1 Fc-NNT (monomeric) (VHH) VHH: EVQLLESGGGEVQPGGSLRLSCVASRGKISQYRMGWYRQAPGKERELVAHISNTGDAAEYVYSVKDRFTISRDSTKNALYLQMSSLRAEDTAVYKCNSVEDILAWGQGTLVTVRP
205	hu1D7v158-1 VHH-hIgG1 Fc-NNT (monomeric) (VHH) VHH: EVQLLESGGGEVQPGGSLRLSCVASRGKISQYRMGWVRQAPGKQRELVAHISNTGDAAEYVAPVKGRFTISRDNAKNALYLQMNSLRAEDTAVYKCNTVEDILAWGQGTLVTVEP
2.82	hu1D7v158-5 VHH-hIgG1 Fc-NNT (monomeric) (VHH) VHH: EVQLLESGGGEVQPGGSLRLSCVASRGKISQYRMGWYRQAPGKQRELVAHISNTGDAAEYVEPVKGRFTISRDNAKNALYLQMNSLRAEDTAVYKCNTVEDILAWGQGTLVTVEP
4.97	hu1D7v158-10 VHH-hIgG1 Fc-NNT (monomeric) (VHH) VHH: EVQLLESGGGEVQPGGSLRLSCVASRGKISQYRMGWYRQAPGKQRELVAHISNTGDAAEYVAPVKGRFTISRDNAKNALYLQMNSLRAEDTAVYYCNTVEDILAWGQGTLVTVEP
3.28	hu1D7v158-2 VHH-hIgG1 Fc-NNT (monomeric) (VHH) VHH: EVQLLESGGGEVQPGGSLRLSCVASRGKISQYRMGWYRQAPGKQRELVSHISNTGDAAEYVAPVKGRFTISRDNAKNALYLQMNSLRAEDTAVYKCNTVEDILAWGQGTLVTVEP
3.13	hu1D7v158-4 VHH-hIgG1 Fc-NNT (monomeric) (VHH) VHH: EVQLLESGGGEVQPGGSLRLSCVASRGKISQYRMGWYRQAPGKQRELVAHISNTGDAAEYAAPVKGRFTISRDNAKNALYLQMNSLRAEDTAVYKCNTVEDILAWGQGTLVTVEP
28	hu1D7v158-3 VHH-hIgG1 Fc-NNT (monomeric) (VHH) VHH: EVQLLESGGGEVQPGGSLRLSCVASRGKISQYRMGWYRQAPGKQRELVAAISNTGDAAEYVAPVKGRFTISRDNAKNALYLQMNSLRAEDTAVYKCNTVEDILAWGQGTLVTVEP
3.47	hu1D7v158-7 VHH-hIgG1 Fc-NNT (monomeric) (VHH) VHH: EVQLLESGGGEVQPGGSLRLSCVASRGKISQYRMGWYRQAPGKQRELVAHISNTGDAAEYVAPVKGRFTISRDNAKNTLYLQMNSLRAEDTAVYKCNTVEDILAWGQGTLVTVEP
20	hu1D7v158-9 VHH-hIgG1 Fc-NNT (monomeric) (VHH) VHH: EVQLLESGGGEVQPGGSLRLSCVASRGKISQYRMGWYRQAPGKEREFVAHISNTGDAAEYVAPVKGRFTISRDNAKNALYLQMNSLRAEDTAVYKCNTVEDILAWGQGTLVTVEP
2.93	hu1D7v158-8 VHH-hIgG1 Fc-NNT (monomeric) (VHH) VHH: EVQLLESGGGEVQPGGSLRLSCVASRGKISQYRMGWYRQAPGKQRELVAHISNTGDAAEYAESVKGRFTISRDNAKNALYLQMNSLRAEDTAVYKCNTVEDILAWGQGTLVTVEP
2.82	hu1D7v158-6 VHH-hIgG1 Fc-NNT (monomeric) (VHH) VHH: EVQLLESGGGEVQPGGSLRLSCVASRGKISQYRMGWYRQAPGKQRELVAHISNTGDAAEYVASVKGRFTISRDNAKNALYLQMNSLRAEDTAVYKCNTVEDILAWGQGTLVTVEP

Target: cynomolgus monkey γδ TCR on cynomolgus Vγ9+ γδ T cells (cynomolgus monkey)
Assay: flow cytometry on expanded cynomolgus γδ T cells gated Vγ9+, anti-human Fcγ A647, MdFI

EC50 (read off the curve) [nM]	Binder
0.3	bivalent 1D7 VHH-human IgG1 Fc xELL fusion (VHH) VHH: QVQLVQSGGGLVQPGGSLRLSCVASRGKISQYRMGWYRQAPGKQRELVAHISNTGDAAEYVDSVKGRFTISRDSTKNAVYLQMNSLKPEDTAVYKCNSVEDILAWGQGTQVTVKP

Target: human γδ TCR (Vγ9Vδ2) on human Vδ2+ γδ T cells (human) (UniProt A0JD36)
Assay: flow cytometry on zoledronate-expanded human γδ T cells gated Vδ2+, anti-VHH Alexa647, MdFI

EC50 (read off the curve) [nM]	Binder
4	1D7v158×HSA×IL-2_X (h1D7v158 VHH - anti-HSA VHH - IL-2_X) (protein, part only; not given: anti-albumin VHH and linkers, part only) chain, part: EVQLLESGGGEVQPGGSLRLSCVASRGKISQYRMGWYRQAPGKQRELVAHISNTGDAAEYVAPVKGRFTISRDNAKNALYLQMNSLRAEDTAVYKCNTVEDILAWGQGTLVTVEPAPASSSTKKTQLQLEALLLDLQMILNGINNYKNPKLTRMLTFKFYMPKKATELKHLQCLERELKRLEEVLNLAQSKNFHLRPRYLISNINVIVLELKGSETTFMCEYADETATIVEFLNRWITFSQSIISTLT
5	1D7×HSA×IL-2_X (anti-γδTCR-1D7 VHH - anti-HSA VHH - IL-2_X) (protein, part only; not given: anti-albumin VHH and linkers, part only) chain, part: QVQLVQSGGGLVQPGGSLRLSCVASRGKISQYRMGWYRQAPGKQRELVAHISNTGDAAEYVDSVKGRFTISRDSTKNAVYLQMNSLKPEDTAVYKCNSVEDILAWGQGTQVTVKPAPASSSTKKTQLQLEALLLDLQMILNGINNYKNPKLTRMLTFKFYMPKKATELKHLQCLERELKRLEEVLNLAQSKNFHLRPRYLISNINVIVLELKGSETTFMCEYADETATIVEFLNRWITFSQSIISTLT

Target: human γδ TCR (Vγ9Vδ2) on human Vδ2+ γδ T cells (human) (UniProt A0JD36)
Assay: flow cytometry, monomeric VHH-hIgG1 Fc fusion on expanded human Vδ2+ γδ T cells, anti-human Fc A647, MFI

EC50 (read off the curve) [nM]	Binder
20	hu1D7v3 VHH-hIgG1 Fc-NNT (monomeric) (VHH) VHH: EVQLLESGGGEVQPGGSLRLSCVASGGKISQYRMGWYRQAPGKGLEWVAHISNTGDAAEYVDSVKGRFTISRDSTKNAVYLQMSSLRAEDTAVYKCNSVEDILAWGQGTLVTVKP
60	hu1D7v86 VHH-hIgG1 Fc-NNT (monomeric) (VHH) VHH: EVQLLESGGGEVQPGGSLRLSCVASRGKISQYRMGWYRQAPGKERELVAHISNTGDAAEYVGGVKDRFTISRDSTKNALYLQMSSLRAEDTAVYKCNSVEDILAWGQGTLVTVRP
30	hu1D7v5 VHH-hIgG1 Fc-NNT (monomeric) (VHH) VHH: EVQLLESGGGEVQPGGSLRLSCVASRGTISQYRMGWYRQAPGKGLEWVAHISNTGDAAEYVDSVKGRFTISRDSTKNAVYLQMSSLRAEDTAVYKCNSVEDILAWGQGTLVTVKP
60	hu1D7v99 VHH-hIgG1 Fc-NNT (monomeric) (VHH) VHH: EVQLLESGGGEVQPGGSLRLSCVASRGKISQYRMGWYRQAPGKERELVAHISNTGDAAEYVSSVKDRFTISRDSTKNALYLQMSSLRAEDTAVYKCNSVEDILAWGQGTLVTVRP
70	hu1D7v85 VHH-hIgG1 Fc-NNT (monomeric) (VHH) VHH: EVQLLESGGGEVQPGGSLRLSCVASRGKISQYRMGWYRQAPGKERELVAHISNTGDAAEYVSGVKDRFTISRDSTKNALYLQMSSLRAEDTAVYKCNSVEDILAWGQGTLVTVRP
